Laboratory results: the supplement of paper PMC9112550, “Optimization of the antimicrobial peptide Bac7 by deep mutational scanning” (BMC Biology, 2022)

Tested on: Escherichia coli TOP10
Test: shrunken log2 fold change of peptide-encoding DNA abundance (4.5 h post-induction vs induction); higher = less antimicrobial activity (less host growth inhibition)
Settings: time post-induction: 4.5 h; library: site-saturation at positions 5, 18, 19, 20
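Also: peptides expressed intracellularly from a pBAD plasmid library in pooled LB shake-flask culture, induced with 0.3% L-arabinose, DNA abundance read by NGS, three biological replicates, DESeq2 with apeglm shrinkage.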

Sequence | shrunken log2 fold change
RRIRFRPPRLPRPRPRPWRVPRP | 0.0748
RRIRLRPPRLPRPRPRPFGAPRP | -0.0596
RRIRRRPPRLPRPRPRPISYPRP | 0.0496
RRIRHRPPRLPRPRPRPNIVPRP | -0.0257
RRIRIRPPRLPRPRPRPNRQPRP | -0.56
RRIRGRPPRLPRPRPRPLMVPRP | 0.885
RRIRLRPPRLPRPRPRPYESPRP | -0.957
RRIRMRPPRLPRPRPRPIISPRP | -0.0891
RRIRARPPRLPRPRPRPGNEPRP | 0.215
RRIRRRPPRLPRPRPRPIEAPRP | -0.137
RRIRGRPPRLPRPRPRPICMPRP | 0.454
RRIRQRPPRLPRPRPRPNHGPRP | -0.00507
RRIRFRPPRLPRPRPRPDPNPRP | -0.072
RRIRARPPRLPRPRPRPGHFPRP | 0.0329
RRIRPRPPRLPRPRPRPGTFPRP | -0.226
RRIRRRPPRLPRPRPRPCFFPRP | 0.0648
RRIRMRPPRLPRPRPRPNHHPRP | -0.592
RRIRPRPPRLPRPRPRPFVWPRP | -0.0428
RRIRKRPPRLPRPRPRPIFRPRP | 0.132
RRIRPRPPRLPRPRPRPMPFPRP | -0.349
RRIRCRPPRLPRPRPRPLWLPRP | -0.0572
RRIRCRPPRLPRPRPRPHTHPRP | -0.676
RRIRVRPPRLPRPRPRPPPMPRP | 0.641
RRIRIRPPRLPRPRPRPFDKPRP | -0.177
RRIRERPPRLPRPRPRPINCPRP | -0.00179

Sequence | shrunken log2 fold change
RRIRHRPPRLPRPRPRPRLYPRP | 0.114
RRIRERPPRLPRPRPRPDVAPRP | 0.087
RRIRTRPPRLPRPRPRPDGFPRP | -0.0487
RRIRWRPPRLPRPRPRPSVQPRP | 0.128
RRIRMRPPRLPRPRPRPLHYPRP | -0.173
RRIRQRPPRLPRPRPRPSFWPRP | 0.0712
RRIRYRPPRLPRPRPRPMTRPRP | -0.139
RRIRARPPRLPRPRPRPPEMPRP | 0.515
RRIRVRPPRLPRPRPRPEAGPRP | 0.553
RRIRQRPPRLPRPRPRPKYWPRP | -0.309
RRIRIRPPRLPRPRPRPPAPPRP | 0.298
RRIRKRPPRLPRPRPRPPGAPRP | 1.3
RRIRSRPPRLPRPRPRPCPKPRP | 0.355
RRIRYRPPRLPRPRPRPANRPRP | 0.0126
RRIRERPPRLPRPRPRPPVMPRP | 0.0499
RRIRHRPPRLPRPRPRPVCNPRP | -0.761
RRIRERPPRLPRPRPRPWCWPRP | 0.315
RRIRMRPPRLPRPRPRPLVLPRP | 0.141
RRIRLRPPRLPRPRPRPTTTPRP | 0.00266
RRIRVRPPRLPRPRPRPDANPRP | 0.167
RRIRVRPPRLPRPRPRPTNNPRP | -0.398
RRIRERPPRLPRPRPRPEKYPRP | -0.534
RRIRARPPRLPRPRPRPWPVPRP | 0.558
RRIRARPPRLPRPRPRPPIIPRP | -0.308
RRIRCRPPRLPRPRPRPYMHPRP | -0.31

Sequence | shrunken log2 fold change
RRIRIRPPRLPRPRPRPLYWPRP | -0.456
RRIRDRPPRLPRPRPRPHEYPRP | -0.01
RRIRMRPPRLPRPRPRPDYAPRP | 0.263
RRIRQRPPRLPRPRPRPNEKPRP | -0.0522
RRIRIRPPRLPRPRPRPFGLPRP | -0.129
RRIRNRPPRLPRPRPRPDDMPRP | -0.107
RRIRSRPPRLPRPRPRPKYDPRP | -0.0717
RRIRGRPPRLPRPRPRPSAPPRP | 0.711
RRIRLRPPRLPRPRPRPQHCPRP | -0.0642
RRIRHRPPRLPRPRPRPPVHPRP | 0.00286
RRIRARPPRLPRPRPRPRFQPRP | 0.466
RRIRMRPPRLPRPRPRPEQIPRP | 0.527
RRIRWRPPRLPRPRPRPHQPPRP | 0.145
RRIRYRPPRLPRPRPRPHQEPRP | -0.0108
RRIRVRPPRLPRPRPRPVTFPRP | -0.467
RRIRFRPPRLPRPRPRPEVMPRP | -0.0905
RRIRTRPPRLPRPRPRPIGFPRP | -0.0989
RRIRGRPPRLPRPRPRPTPAPRP | 1.43
RRIRIRPPRLPRPRPRPPEYPRP | -0.186
RRIRARPPRLPRPRPRPMHAPRP | 0.409
RRIRCRPPRLPRPRPRPQRPPRP | 0.166
RRIRYRPPRLPRPRPRPHCHPRP | -0.735
RRIRWRPPRLPRPRPRPMCGPRP | 0.205
RRIRCRPPRLPRPRPRPDHFPRP | -0.175
RRIRYRPPRLPRPRPRPAFQPRP | -0.00804

Sequence | shrunken log2 fold change
RRIRWRPPRLPRPRPRPVPCPRP | -0.00353
RRIRGRPPRLPRPRPRPFLFPRP | 0.39
RRIRYRPPRLPRPRPRPTKWPRP | -0.489
RRIRKRPPRLPRPRPRPKHGPRP | 0.157
RRIRGRPPRLPRPRPRPIWDPRP | 0.474
RRIRLRPPRLPRPRPRPRPFPRP | 0.358
RRIRHRPPRLPRPRPRPMDWPRP | -0.177
RRIRHRPPRLPRPRPRPHRAPRP | 0.0912
RRIRLRPPRLPRPRPRPFHYPRP | -0.211
RRIRFRPPRLPRPRPRPNERPRP | 0.047
RRIRERPPRLPRPRPRPQSQPRP | 0.0662
RRIRVRPPRLPRPRPRPMSMPRP | -0.323
RRIRNRPPRLPRPRPRPDTYPRP | -0.0291
RRIRQRPPRLPRPRPRPMDAPRP | 0.05
RRIRYRPPRLPRPRPRPFHIPRP | -0.24
RRIRPRPPRLPRPRPRPNATPRP | 0.323
RRIRRRPPRLPRPRPRPDFNPRP | -0.155
RRIRCRPPRLPRPRPRPFAPPRP | 0.229
RRIRYRPPRLPRPRPRPACCPRP | -0.405
RRIRFRPPRLPRPRPRPCIFPRP | -0.361
RRIRIRPPRLPRPRPRPSKHPRP | -0.813
RRIRWRPPRLPRPRPRPSWLPRP | -0.167
RRIRFRPPRLPRPRPRPDGMPRP | -0.0385
RRIRGRPPRLPRPRPRPHCHPRP | 0.284
RRIRGRPPRLPRPRPRPFVNPRP | -0.0813

Sequence | shrunken log2 fold change
RRIRCRPPRLPRPRPRPGEAPRP | 0.449
RRIRRRPPRLPRPRPRPMVNPRP | -0.0292
RRIRWRPPRLPRPRPRPSVAPRP | 0.491
RRIRMRPPRLPRPRPRPYNGPRP | -0.289
RRIRSRPPRLPRPRPRPESKPRP | 0.385
RRIRRRPPRLPRPRPRPPDAPRP | 0.768
RRIRCRPPRLPRPRPRPLWHPRP | -0.091
RRIRRRPPRLPRPRPRPHMDPRP | -0.265
RRIRHRPPRLPRPRPRPMWSPRP | -0.209
RRIRMRPPRLPRPRPRPISRPRP | 0.074
RRIRYRPPRLPRPRPRPEHSPRP | -0.425
RRIRMRPPRLPRPRPRPHWSPRP | 0.0857
RRIRDRPPRLPRPRPRPPLHPRP | 0.177
RRIRWRPPRLPRPRPRPDFKPRP | -0.0843
RRIRARPPRLPRPRPRPIVSPRP | 0.0293
RRIRVRPPRLPRPRPRPQAMPRP | -0.00096
RRIRSRPPRLPRPRPRPKILPRP | -0.112
RRIRCRPPRLPRPRPRPIICPRP | -0.442
RRIRRRPPRLPRPRPRPIPMPRP | 0.287
RRIRPRPPRLPRPRPRPMSVPRP | 0.0754
RRIRVRPPRLPRPRPRPGDDPRP | 0.364
RRIRARPPRLPRPRPRPWGVPRP | 0.329
RRIRYRPPRLPRPRPRPYGDPRP | -0.525
RRIRKRPPRLPRPRPRPPTTPRP | 0.452
RRIRLRPPRLPRPRPRPSDNPRP | -0.49
